Data as given in US20250179187A1, “ANTI PD-L2 ANTIBODY” (REJUVERON SENESCENCE THERAPEUTICS AG, priority 2022, published 2025).

T1: human PD-L2 antigen (Homo sapiens, UniProt Q9BQ51)
T1 sequence (Q9BQ51 20-273): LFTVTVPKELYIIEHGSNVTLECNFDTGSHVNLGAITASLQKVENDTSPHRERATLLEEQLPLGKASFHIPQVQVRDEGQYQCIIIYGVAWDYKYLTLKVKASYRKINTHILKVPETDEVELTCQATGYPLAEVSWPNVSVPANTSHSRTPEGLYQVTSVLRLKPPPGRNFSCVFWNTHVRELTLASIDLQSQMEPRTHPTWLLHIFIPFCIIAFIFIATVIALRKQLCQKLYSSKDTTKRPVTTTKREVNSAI


Key:
[1] = target: T1, human PD-L2 antigen; assay: Single cycle kinetics on Biacore 8K, binding to human PD-L2 antigen; details: Table 2, cell culture supernatants
Excerpt: Table 2: Single cycle kinetic parameters of chimeric (VH0/VK0) and humanized variants (tested as cell culture supernatants) binding to human PD-L2 antigen as determined using the Biacore 8K. As used herein, the term “KD” is intended to refer to the dissociation equilibrium constant of a particular antibody-antigen interaction, ka is the binding rate constant and kd is the dissociation rate constant. The binding affinity of antibodies of the disclosed invention may be measured or determined by standard antibody-antigen assays. The relative KD was calculated by dividing the KD of the humanized variant by that of the VH0/VK0 assayed in the same experiment.

[2] = target: T1, human PD-L2 antigen; assay: as above; details: Table 3; preferred embodiments by Biacore

| Molecule | kd [1] [s⁻¹] | kd [2] [s⁻¹] |
| --- | --- | --- |
| VH4/VK2: humanized anti-PD-L2 variant; SEQ ID NO: 5/SEQ ID NO: 11 (antibody, V domains shown) VH: QVQLVQSGAEVKKPGSSVKVSCKASGYAFSNYFIEWVKQPPGKGLEWIGLNIPGSGGSNYAEKFKGRVTITADKSTSTAYMELSSLRSEDTAVYYCARRRLPPDWYFDVWGQGTTVTVSS VL: DVVMTQSPLSLPVTLGQPASISCRSSQSLVHSDGNTYLHWYQQKPGQPPKLLIYKVSNRFSGVPDRFSGSGSGTDFTLKISRVEAEDVGVYYCSQSTHVPWTFGGGTKVEIK | 0.000129 | 0.000129 |
| VH1/VK0: anti-PD-L2 variant on hIgG1; SEQ ID NO: 2/SEQ ID NO: 9 (antibody, V domains shown, human IgG1 constant regions) VH: QVQLVQSGAELKKPGSSVKVSCKASGYAFSNYFIEWVKQPPGKGLEWIGLNIPGSGGSNYAEKFKGRATITADKSTSTAYMELSSLTSEDSAVYFCARRRLPPDWYFDVWGQGTTVTVSS VL: DVVMTQTPLSLPVSLGDQASISCRSSQSLVHSDGNTYLHWYLQKPGQSPKLLIYKVSNRFSGVPDRFSGSGSGTDFTLKISRVEAEDLGVYFCSQSTHVPWTFGGGTKLEIK | 0.000109 |  |
| VH0/VK0: chimeric anti-PD-L2 antibody, mouse Fab on human IgG1 backbone; SEQ ID NO: 1/SEQ ID NO: 9 (antibody, V domains shown, human IgG1 constant regions) VH: QVQLQQSGAELVRPGTSVKVSCKASGYAFSNYFIEWVKQRPGQGLEWIGLNIPGSGGSNYAEKFKGKATLTADKSSSTAYMQLSSLTSEDSAVYFCARRRLPPDWYFDVWGTGTTVTVSS VL: DVVMTQTPLSLPVSLGDQASISCRSSQSLVHSDGNTYLHWYLQKPGQSPKLLIYKVSNRFSGVPDRFSGSGSGTDFTLKISRVEAEDLGVYFCSQSTHVPWTFGGGTKLEIK | 9.72e-05 | 9.72e-05 |
| VH7/VK2: humanized anti-PD-L2 variant; SEQ ID NO: 7/SEQ ID NO: 11 (antibody, V domains shown) VH: QVQLVQSGAELKKPGSSVKVSCKASGYAFSNYFIEWVKQPPGKGLEWIGLNIPGSGGSNYAEKFKGRATITADKSTSTAYMELSSLRSEDTAVYYCARRRLPPDWYFDVWGQGTTVTVSS VL: DVVMTQSPLSLPVTLGQPASISCRSSQSLVHSDGNTYLHWYQQKPGQPPKLLIYKVSNRFSGVPDRFSGSGSGTDFTLKISRVEAEDVGVYYCSQSTHVPWTFGGGTKVEIK | 0.000118 | 0.000118 |
| VH8/VK2: humanized anti-PD-L2 variant; SEQ ID NO: 8/SEQ ID NO: 11 (antibody, V domains shown) VH: QVQLVQSGAEVKKPGSSVKVSCKASGYAFSNYFIEWVKQPPGKGLEWIGLNIPGSGGSNYAEKFKGRATITADKSTSTAYMELSSLRSEDTAVYYCARRRLPPDWYFDVWGQGTTVTVSS VL: DVVMTQSPLSLPVTLGQPASISCRSSQSLVHSDGNTYLHWYQQKPGQPPKLLIYKVSNRFSGVPDRFSGSGSGTDFTLKISRVEAEDVGVYYCSQSTHVPWTFGGGTKVEIK | 0.000121 | 0.000121 |
| VH6/VK2: humanized anti-PD-L2 variant; SEQ ID NO: 6/SEQ ID NO: 11 (antibody, V domains shown) VH: QVQLVQSGAEVKKPGSSVKVSCKASGYSFSNYFIEWVKQPPGKGLEWIGLNIPGSGGSNYAEKFKGRVTITADKSTSTAYMELSSLRSEDTAVYYCARRRLPPDWYFDVWGQGTTVTVSS VL: DVVMTQSPLSLPVTLGQPASISCRSSQSLVHSDGNTYLHWYQQKPGQPPKLLIYKVSNRFSGVPDRFSGSGSGTDFTLKISRVEAEDVGVYYCSQSTHVPWTFGGGTKVEIK | 0.000128 | 0.000128 |
| VH6/VK3: humanized anti-PD-L2 variant; SEQ ID NO: 6/SEQ ID NO: 12 (antibody, V domains shown) VH: QVQLVQSGAEVKKPGSSVKVSCKASGYSFSNYFIEWVKQPPGKGLEWIGLNIPGSGGSNYAEKFKGRVTITADKSTSTAYMELSSLRSEDTAVYYCARRRLPPDWYFDVWGQGTTVTVSS VL: DVVMTQSPLSLPVTLGQPASISCRSSQSLVHSGGNTYLHWYQQKPGQPPKLLIYKVSNRFSGVPDRFSGSGSGTDFTLKISRVEAEDVGVYFCSQSTHVPWTFGGGTKVEIK | 0.000444 | 0.000444 |
| VH6/VK1: humanized anti-PD-L2 variant; SEQ ID NO: 6/SEQ ID NO: 10 (antibody, V domains shown) VH: QVQLVQSGAEVKKPGSSVKVSCKASGYSFSNYFIEWVKQPPGKGLEWIGLNIPGSGGSNYAEKFKGRVTITADKSTSTAYMELSSLRSEDTAVYYCARRRLPPDWYFDVWGQGTTVTVSS VL: DVVMTQSPLSLPVTLGQPASISCRSSQSLVHSDGNTYLHWYQQKPGQPPKLLIYKVSNRFSGVPDRFSGSGSGTDFTLKISRVEAEDVGVYFCSQSTHVPWTFGGGTKVEIK | 0.000121 | 0.000121 |
